B1: Neisseria gonorrhoeae LptD (NgLptD) (natural protein, UniProt Q5F651 24-801, looked up)
chain: ADTVAAEEADGRVAEGGAQGASESAQASDLTLGSTCLFCSNESGSPERTEAAVQGSGEASVPEDYTRIVADRMEGQSKVKVRAEGSVIIERDGAVLNTDWADYDQSGDTVTVGDRFALQQDGTLIRGETLTYNLDQQTGEAHNVRMETEQGGRRLQSVSRTAEMLGEGRYKLTETQFNTCSAGDAGWYVKAASVEADRGKGIGVAKHAAFVFGGVPLFYTPWADFPLDGNRKSGLLVPSVSAGSDGVSLSVPYYFNLAPNFDATFAPGIIGERGATFDGQIRYLRPDYSGQTDLTWLPHDKKSGRNNRYQAKWQHRHDISDTLQAGVDFNQVSDSGYYRDFYGGEEIAGNVNLNRRVWLDYGGRAAGGSLNAGLSVQKYQTLANQSGYKDEPYAIMPRLSADWHKNAGRAQIGVSAQFTRFSHDGRQDGSRLVVYPGIKWDFSNSWGYVRPKLGLHATYYSLDSFGGKASRSVGRVLPVVNIDGGTTFERNTRLFGGGVVQTIEPRLFYNYIPAKSQNDLPNFDSSESSFGYGQLFRENLYYGNDRINAANSLSTAVQSRILDGATGEERFRAGIGQKFYFKDDAVMLDGSVGKNPRSRSDWVAFASGGIGGRFTLDSSIHYNQNDKRAEHYAVGAGYRPAPGKVLNARYKYGRNEKIYLQADGSYFYDKLSQLDLSAQWPLTRNLSAVVRYNYGFEAKKPIEMLAGAEYKSSCGCWGAGVYAQRYVTGENTYKNAVFFSLQLKDLSSVGRNPAGRMDVAVPGYIPAHSLSAGRNKRP
B2: Sybody 21 (Sb21) (VHH)
VHH: QVQLVESGGGLVQAGGSLRLSCAASGFPVKYEHMYWYRQAPGKEREWVAAINSAGNETHYADSVKGRFTISRDNAKNTVYLQMNSLKPEDTAVYYCNVKDIGWWAAYDYWGQGTQVTV

How the values were obtained:
[1] = biological target: the molecule itself; test: cryo-EM structure
[2] = biological target: N. gonorrhoeae LptD (1-801)-3C-His10 and LptE (1-159)-AVI complex, biotinylated (Neisseria gonorrhoeae) (UniProt Q5F651); test: grating coupled interferometry

Binder	binding result [1]	Kd [2]
B1	binds	–
B2	–	10 nM
